The target in the series is HuR full-length (FL-HuR, rHuR) (UniProt Q15717 1-326). Nature of the series: EMSA; EMSA: 20 mM Tris-HCl pH 7.8, 150 mM KCl, 2 mM MgCl2, 0.1% Triton X-100, 0.5 mM DTT, heparin 5 mg/ml, BSA 1 mg/ml, 10% glycerol, on ice 15 min; 6% native PAGE, 0.
Chain of HuR full-length (FL-HuR, rHuR) (Q15717 whole entry): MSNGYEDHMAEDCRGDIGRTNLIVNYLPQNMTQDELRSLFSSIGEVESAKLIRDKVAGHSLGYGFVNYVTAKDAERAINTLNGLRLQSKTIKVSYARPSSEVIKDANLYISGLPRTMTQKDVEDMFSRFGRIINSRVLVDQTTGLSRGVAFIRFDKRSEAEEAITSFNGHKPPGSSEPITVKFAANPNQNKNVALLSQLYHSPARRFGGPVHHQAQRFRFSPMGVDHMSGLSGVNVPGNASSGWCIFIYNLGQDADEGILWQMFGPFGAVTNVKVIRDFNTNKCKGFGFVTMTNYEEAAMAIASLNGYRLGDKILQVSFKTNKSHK

Turning to UGGAGUGUGACAAUGGUGUUUG (ssRNA) [miR-122 (5p)], the Kd (commonly the equilibrium constant for the complex coming apart) amounted to 50 nM.

For the molecule AUUAUUUAUUAUUUAUUUAUUAUUUAUUUAUUUA (ssRNA) [TNF-alpha 3'UTR ARE RNA], the binding result was “binds”.

For the origin of these results see article PMC4967961.
